Here are results for one substance from paper PMC9346500.

In this assay the target is full-length (FL) UBQLN2 (UniProt Q9UHD9). In words: NMR titration.

“ubiquitin (Ub) (from UniProt P0CG48 1-76) (natural protein; other documents disagree on this pair)” came in with a Kd of 3000 nM.

As a reminder, the Kd is the constant that tells how readily two partners part at equilibrium. A high value points to a looser complex.
